B1: VLWFKPVEL (peptide)
peptide: VLWFKPVEL
B2: FMQDPMEVFV (peptide)
peptide: FMQDPMEVFV
B3: FLHDHQAEL (peptide)
peptide: FLHDHQAEL
B4: LLAELPASVHA (peptide)
peptide: LLAELPASVHA
B5: SLADDSVLERL (peptide)
peptide: SLADDSVLERL
B6: YLLREWVNL (peptide)
peptide: YLLREWVNL
B7: FLSDQPEPYL (peptide)
peptide: FLSDQPEPYL
B8: VLSVITEEL (peptide)
peptide: VLSVITEEL
B9: YLDRKLLTL (peptide)
peptide: YLDRKLLTL
B10: ALIFKIASA (peptide)
peptide: ALIFKIASA
B11: YLIEPDVELQRI (peptide)
peptide: YLIEPDVELQRI
B12: ATPMPTPSV (peptide)
peptide: ATPMPTPSV
B13: FLFEPVVKAFL (peptide)
peptide: FLFEPVVKAFL
B14: FLTDYLNDL (peptide)
peptide: FLTDYLNDL
B15: FLWQHVELVL (peptide)
peptide: FLWQHVELVL
B16: FLVEAPHDWDL (peptide)
peptide: FLVEAPHDWDL
B17: YLLPLLQRL (peptide)
peptide: YLLPLLQRL
B18: VLAFENPQV (peptide)
peptide: VLAFENPQV
B19: FIMEGGAMV (peptide)
peptide: FIMEGGAMV
B20: VLYNQRVEEI (peptide)
peptide: VLYNQRVEEI
B21: ALVFELHYV (peptide)
peptide: ALVFELHYV
B22: FIMDDPAGNSYL (peptide)
peptide: FIMDDPAGNSYL
B23: YIIDSAQAV (peptide)
peptide: YIIDSAQAV
B24: FILPSSLYL (peptide)
peptide: FILPSSLYL
B25: FLVETGFLHV (peptide)
peptide: FLVETGFLHV
B26: SLITPLQAV (peptide)
peptide: SLITPLQAV
B27: ALEDRVWEL (peptide)
peptide: ALEDRVWEL
B28: ITTEVVNELYV (peptide)
peptide: ITTEVVNELYV
B29: YMIGSEVGNYL (peptide)
peptide: YMIGSEVGNYL
B30: FLPELPADLEA (peptide)
peptide: FLPELPADLEA
B31: FIMEGGAMVL (peptide)
peptide: FIMEGGAMVL
B32: VVDGTCVAV (peptide)
peptide: VVDGTCVAV
B33: VLVQVSPSL (peptide)
peptide: VLVQVSPSL
B34: YILGKFFAL (peptide)
peptide: YILGKFFAL
B35: ILQEFESKL (peptide)
peptide: ILQEFESKL
B36: YLAELVTPIL (peptide)
peptide: YLAELVTPIL
B37: YTIPLAIKL (peptide)
peptide: YTIPLAIKL
B38: FLLSINDFL (peptide)
peptide: FLLSINDFL
B39: FILTHVDQL (peptide)
peptide: FILTHVDQL
B40: FLIQEIKTL (peptide)
peptide: FLIQEIKTL
B41: FLTDLFAQL (peptide)
peptide: FLTDLFAQL
B42: ILTELGGFEV (peptide)
peptide: ILTELGGFEV
B43: ALSEKLARL (peptide)
peptide: ALSEKLARL
B44: NLWSLVAKV (peptide)
peptide: NLWSLVAKV
B45: FIWPMLIHI (peptide)
peptide: FIWPMLIHI
B46: YLLEENKIKL (peptide)
peptide: YLLEENKIKL
B47: ALATHILSL (peptide)
peptide: ALATHILSL
B48: FLDEDDMSL (peptide)
peptide: FLDEDDMSL
B49: SIFASPESV (peptide)
peptide: SIFASPESV
B50: FLSPQQPPLL (peptide)
peptide: FLSPQQPPLL
B51: HLIDTNKIQL (peptide)
peptide: HLIDTNKIQL
B52: FLLGPEALSFA (peptide)
peptide: FLLGPEALSFA
B53: FLDPSLDPLL (peptide)
peptide: FLDPSLDPLL
B54: LISPLLLPV (peptide)
peptide: LISPLLLPV
B55: RLLDLENSLLGL (peptide)
peptide: RLLDLENSLLGL
B56: KMDWIFHTI (peptide)
peptide: KMDWIFHTI
B57: ALAKPPVVSV (peptide)
peptide: ALAKPPVVSV
B58: FLDALLTDV (peptide)
peptide: FLDALLTDV
B59: SLFGPLPGPGPALV (peptide)
peptide: SLFGPLPGPGPALV
B60: YLGPVSPSL (peptide)
peptide: YLGPVSPSL
B61: KLLEEICNL (peptide)
peptide: KLLEEICNL
B62: VIAELPPKVSV (peptide)
peptide: VIAELPPKVSV
B63: TLLADQGEIRV (peptide)
peptide: TLLADQGEIRV
B64: FLYPFPLALF (peptide)
peptide: FLYPFPLALF
B65: FMEPTLLML (peptide)
peptide: FMEPTLLML
B66: FLEEGGVVTV (peptide)
peptide: FLEEGGVVTV

Some results are limits rather than exact numbers.

In this experiment the target is T1, HLA-A*02:01 (human).
T1 construct: MHC class I monomer of the UV-ligand exchange assay; also called peptide-receptive MHC molecules; MHC class I
In words: UV peptide-exchange ELISA. In outline: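 Peptide-MHC complexes formed by UV-mediated exchange of a UV-cleavable peptide for the test peptide; exchange yield quantified by β2m ELISA. Diluted 100-fold, captured on streptavidin-coated plates 1 h at 37 °C, detected with HRP anti-β2m and TMB at 450 nm against refolded HLA-A*02:01 monomer standards (15-500 ng/ml).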
In turn, B1 had a peptide exchange yield of 50 to 75%.

B2 returned a peptide exchange yield of 50 to 75%.

Molecule B3 returned a peptide exchange yield of 20 to 50%.

B4 yielded a peptide exchange yield of 50 to 75%.

Molecule B5 registered a peptide exchange yield of 50 to 75%.

As to B6, the peptide exchange yield is not below 75%.

Molecule B7 displayed a peptide exchange yield of 20 to 50%.

In turn, B8 gave a peptide exchange yield of 50 to 75%.

In the case of B9, the peptide exchange yield is 50 to 75%.

Molecule B10 gave a peptide exchange yield of 50 to 75%.

In the case of B11, the peptide exchange yield was in the range of 50 to 75%.

For the molecule B12, the peptide exchange yield lay in the range of 20 to 50%.

With B13, the peptide exchange yield was in the range of 50 to 75%.

For the molecule B14, the peptide exchange yield was 50 to 75%.

Take B15: the peptide exchange yield was in the range of 50 to 75%.

As to B16, the peptide exchange yield is not below 75%.

B17 registered a peptide exchange yield not below 75%.

In the case of B18, the peptide exchange yield fell in the range of 50 to 75%.

In turn, B19 registered a peptide exchange yield of 50 to 75%.

In the case of B20, the peptide exchange yield is 50 to 75%.

B21 gave a peptide exchange yield of 50 to 75%.

For B22, the peptide exchange yield was 50 to 75%.

With B23, the peptide exchange yield is 50 to 75%.

Regarding B24, the peptide exchange yield lay in the range of 50 to 75%.

In turn, B25 showed a peptide exchange yield not below 75%.

The molecule B26 came in with a peptide exchange yield of 50 to 75%.

For the molecule B27, the peptide exchange yield lay in the range of 50 to 75%.

As for B28, the peptide exchange yield is 50 to 75%.

In the case of B29, the peptide exchange yield was not below 75%.

On to B30, for which the peptide exchange yield was in the range of 50 to 75%.

Consider B31, for which the peptide exchange yield was not below 75%.

In turn, B32 gave a peptide exchange yield of 50 to 75%.

Consider B33, for which the peptide exchange yield is 50 to 75%.

For B34, the peptide exchange yield lay in the range of 50 to 75%.

Molecule B35 showed a peptide exchange yield of 50 to 75%.

For B36, the peptide exchange yield is 50 to 75%.

The molecule B37 yielded a peptide exchange yield of 50 to 75%.

With B38, the peptide exchange yield was 50 to 75%.

The molecule B39 displayed a peptide exchange yield not below 75%.

Turning to B40, the peptide exchange yield was in the range of 50 to 75%.

With B41, the peptide exchange yield is not below 75%.

In the case of B42, the peptide exchange yield was in the range of 50 to 75%.

With B43, the peptide exchange yield fell in the range of 50 to 75%.

For B44, the peptide exchange yield is 50 to 75%.

Take B45: the peptide exchange yield was in the range of 50 to 75%.

In turn, B46 showed a peptide exchange yield of 50 to 75%.

In turn, B47 registered a peptide exchange yield of 50 to 75%.

The molecule B48 registered a peptide exchange yield of 20 to 50%.

In the case of B49, the peptide exchange yield was in the range of 50 to 75%.

As for B50, the peptide exchange yield lay within 50 to 75%.

B51 came in with a peptide exchange yield of 50 to 75%.

Regarding B52, the peptide exchange yield is not below 75%.

Turning to B53, the peptide exchange yield lay within 50 to 75%.

Turning to B54, the peptide exchange yield lay within 50 to 75%.

With B55, the peptide exchange yield lay within 50 to 75%.

B56 returned a peptide exchange yield of 50 to 75%.

For B57, the peptide exchange yield was in the range of 50 to 75%.

B58 displayed a peptide exchange yield of 50 to 75%.

Molecule B59 had a peptide exchange yield of 50 to 75%.

Take B60: the peptide exchange yield was in the range of 50 to 75%.

Consider B61, for which the peptide exchange yield is not below 75%.

Consider B62, for which the peptide exchange yield was 50 to 75%.

Take B63: the peptide exchange yield is 20 to 50%.

Molecule B64 registered a peptide exchange yield of 50 to 75%.

The molecule B65 came in with a peptide exchange yield of 50 to 75%.

The molecule B66 displayed a peptide exchange yield of 50 to 75%.

These data come from patent publication US20170165337A1 (IMMATICS BIOTECHNOLOGIES, published 2017).
